Reference: US20060052286A1, “Factor VII conjugates for selectively treating neovascularization disorders” (Yale University, priority 2004, published 2006)

Columns and labels:
[1] = test system: choroidal neovascularization (CNV) lesions; assay: Targeted photodynamic therapy of laser-induced CNV lesions in rats (fluorescein angiography); format: in vivo, Norway-Brown rats
Experimental: CNV lesions were induced by laser photocoagulation of the retina in both eyes of Norway-Brown rats. Group 1: one eye received an intravitreal injection of 10 ul verteporfin conjugated to targeting molecule, and the other eye was used as a control. One hour later some of the lesions were treated with 690 nm laser light, while the other lesions were not irradiated. Group 2: one eye received iv. injection of 0.5 to 1 mg/m^2 verteporfin conjugated with targeting molecule. 15, 30 or 60 minutes later some of the lesions were treated with 690 nm laser light, while the other lesions were not irradiated. The lesions were examined by fluorescein angiography 1, 7 and 14 days later to assess the efficacy of targeted photodynamic therapy. In the case of intravitreal treatment with the same dosage, the effects of targeted photodynamic therapy lasted at least seven days. While there is no effect of PDT in the case of intravitreal injection of free verteporfin, the effects of targeted photodynamic therapy last even longer than 14 days, and the dosage of verteporfin in targeted photodynamic therapy is only 16% as compared to regular PDT verteporfin.
CNV lesions were induced by laser photocoagulation of the retina in both eyes of Norway-Brown rats. Choroidal neovascularization was induced by photocoagulating the posterior pole of rats with argon green laser using a slit lamp and a fundus contact lens to deliver 200-700 mW power for 0.1 second to a 50 μm spot. The power was adjusted to produce a blister or small hemorrhage. If no bleeding was observed, an additional laser-induced lesion was produced next to the first spot. Neovascular membranes usually develop within 2 weeks.
After 4 weeks, FVII-verteporfin conjugate (fVIIPD) at doses of 0.5 or 1 mg/m^2 was injected intravenously into the tail vein of the rats. Some of the CNV lesions were irradiated with 689 nm laser for 83 seconds at 15, 30 or 60 minutes after intravenous injection, while the other lesions were not irradiated (no light controls). Control rats were intravenously injected with Verteporfin (6.0 mg/m2) and laser irradiation was done 15 minutes later. The lesions were examined by fundus photographs and fluorescein angiography 1, 7 and 14 days later to assess the efficacy of ITPT. Choroidal veovascular membranes were treated by intravitreal injection of Verteporfin attached to targeting molecules that bind selectively to the endothelial cells of pathologic vessels. The photosensitizer was activated with an opal laser. A similar experiment was performed by intravitreal injection of fVII-targeted verteporfin.

[2] = target: T1, Tissue Factor on the tumor cells (human breast cancer cells) (Homo sapiens, UniProt P13726); assay: Binding to human breast cancer cells expressing TF by flow cytometry; details: conjugated compared with non-conjugated molecule
T1 construct: Human Tumor Cells Expressing TF; endogenous in cells
Experimental: mfVIIP was conjugated to verteporfin using the procedure described above. The binding activity of the conjugate to human breast cancer cells was tested by flow cytometry

T1 sequence (P13726 33-295): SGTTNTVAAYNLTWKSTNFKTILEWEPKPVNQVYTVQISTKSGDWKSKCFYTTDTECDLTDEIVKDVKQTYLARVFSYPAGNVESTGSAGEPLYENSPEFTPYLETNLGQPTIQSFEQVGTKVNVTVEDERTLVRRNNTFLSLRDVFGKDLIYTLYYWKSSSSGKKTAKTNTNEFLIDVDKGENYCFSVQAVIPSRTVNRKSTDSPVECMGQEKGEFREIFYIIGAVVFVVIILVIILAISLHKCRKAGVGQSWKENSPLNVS

Molecule | effect of PDT ([1]; intravitreal injection, same dosage) | blood vessel leakage ([1]; intravitreal injection followed by laser activation, at 7 days) | duration of effects of targeted photodynamic therapy ([1]; intravitreal treatment, 690 nm laser light) | duration of effects of targeted photodynamic therapy ([1]; route not stated in the sentence (apparently iv 0.5 to 1 mg/m^2), verteporfin dosage only 16% of regular PDT) [days] | binding activity to human breast cancer cells [2]
verteporfin [reference compound] | no effect |  |  |  | 
mfVIIPD: verteporfin conjugated via EDC to mfVIIP protein (mouse factor VII with K341A mutation) (conjugate, UniProt P70375 1-446, looked up, variant K341A, verteporfin conjugate; S-peptide and His6 tags) MVPQAHGLLLLCFLLQLQGPLGTAVFITQEEAHGVLHRQRRANSLLEELWPGSLERECNEEQCSFEEAREIFKSPERTKQFWIVYSDGDQCASNPCQNGGTCQDHLKSYVCFCLLDFEGRNCEKSKNEQLICANENGDCDQYCRDHVGTKRTCSCHEDYTLQPDEVSCKPKVEYPCGRIPVVEKRNSSSRQGRIVGGNVCPKGECPWQAVLKINGLLLCGAVLLDARWIVTAAHCFDNIRYWGNITVVMGEHDFSEKDGDEQVRRVTQVIMPDKYIRGKINHDIALLRLHRPVTFTDYVVPLCLPEKSFSENTLARIRFSRVSGWGQLLDRGATALELMSIEVPRLMTQDCLEHAKHSSNTPKITENMFCAGYMDGTKDACAGDSGGPHATHYHGTWYLTGVVSWGEGCAAIGHIGVYTRVSQYIDWLVRHMDSKLQVGVFRLPLL |  | completely stopped blood vessel leakage | at least seven | > 14 | identical
mfVIIP: mouse factor VII with K341A mutation, ribonuclease S-peptide and 6 Histidines, produced in CHO cells (protein, UniProt P70375 1-446, looked up, variant K341A, S-peptide and His6 tags, mouse factor VII with K341A mutation, ribonuclease S-peptide and 6 Histidines, produced in CHO cells) MVPQAHGLLLLCFLLQLQGPLGTAVFITQEEAHGVLHRQRRANSLLEELWPGSLERECNEEQCSFEEAREIFKSPERTKQFWIVYSDGDQCASNPCQNGGTCQDHLKSYVCFCLLDFEGRNCEKSKNEQLICANENGDCDQYCRDHVGTKRTCSCHEDYTLQPDEVSCKPKVEYPCGRIPVVEKRNSSSRQGRIVGGNVCPKGECPWQAVLKINGLLLCGAVLLDARWIVTAAHCFDNIRYWGNITVVMGEHDFSEKDGDEQVRRVTQVIMPDKYIRGKINHDIALLRLHRPVTFTDYVVPLCLPEKSFSENTLARIRFSRVSGWGQLLDRGATALELMSIEVPRLMTQDCLEHAKHSSNTPKITENMFCAGYMDGTKDACAGDSGGPHATHYHGTWYLTGVVSWGEGCAAIGHIGVYTRVSQYIDWLVRHMDSKLQVGVFRLPLL |  |  |  |  | identical
